Laboratory results as given in patent publication WO2023190852A1 (dated 2023).

Columns and labels:
[1] = target: RBD derived from the Omicron strain (BA.1 strain; B.1.1.529) (SARS-CoV-2)
[2] = target: spike protein (RBD region) derived from the South African mutant strain (BA.4 strain) (SARS-CoV-2)
[3] = target: RBD derived from the Omicron strain (BA.4 and BA.5 strains) (SARS-CoV-2)

B1: natural human IgG antibody (HIG001697) (antibody, V domains shown)
VH: EVQLVESGGGLVQPGGSLRLSCTASEIIVTRNYMTWVRQAPGKGLEWVAQIYPGGTTYYADSVKGRFTISRHNSMNTMYLQMNSLRTEDTAVYYCARSRGGVDDFWGQGTLVTVSS
VL: DIQMTQSPSSLSASVGDRVTITCQASQDINKFLNWYQQKPGHAPKLLIYDALNLEAGVPSRFSGSASGTYFTFTITSLQPEDIATYYCQQYDNIPPTYGGGTKVDIKR
[1]
  Kd: 1.33 nM
[2]
  Kd: 0.282 nM
[3]
  Kd: 9.96 nM
